Results reported in US20190225698A1 (JIANGSU HENGRUI MEDICINE, published 2019).
Residue numbers refer to the chain shown, from its start.

How the values were obtained:
Assay in all cases: flow cytometry on transfected HEK293 cells
[1] = target: T1, human CD40 expressed on transfected HEK293 cells (human, UniProt P25942 21-277)
T1 construct: whole, on cells

[2] = target: T2, murine CD40 expressed on transfected HEK293 cells (murine, UniProt P27512 20-289)
T2 construct: whole, on cells
T2 sequence (looked up): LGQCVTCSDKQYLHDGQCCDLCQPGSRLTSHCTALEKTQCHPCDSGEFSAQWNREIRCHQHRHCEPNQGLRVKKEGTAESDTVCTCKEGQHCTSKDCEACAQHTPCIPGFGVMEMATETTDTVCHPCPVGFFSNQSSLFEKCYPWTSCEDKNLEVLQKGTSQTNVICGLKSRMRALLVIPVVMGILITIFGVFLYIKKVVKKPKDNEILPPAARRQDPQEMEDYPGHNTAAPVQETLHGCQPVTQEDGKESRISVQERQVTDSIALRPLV

[3] = target: T3, human OX40 expressed on transfected HEK293 cells (human, UniProt P43489 29-277)
T3 construct: whole, on cells
T3 sequence (looked up): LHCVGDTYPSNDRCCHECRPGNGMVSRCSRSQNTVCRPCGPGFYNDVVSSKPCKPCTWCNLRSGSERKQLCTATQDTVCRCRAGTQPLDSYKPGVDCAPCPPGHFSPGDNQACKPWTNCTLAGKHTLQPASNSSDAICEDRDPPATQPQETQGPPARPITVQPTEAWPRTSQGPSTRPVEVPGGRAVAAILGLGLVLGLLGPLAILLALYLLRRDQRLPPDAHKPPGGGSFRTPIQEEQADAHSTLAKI

[4] = target: T4, murine OX40 expressed on transfected HEK293 cells (murine, UniProt P47741 20-272)
T4 construct: whole, on cells
T4 sequence (looked up): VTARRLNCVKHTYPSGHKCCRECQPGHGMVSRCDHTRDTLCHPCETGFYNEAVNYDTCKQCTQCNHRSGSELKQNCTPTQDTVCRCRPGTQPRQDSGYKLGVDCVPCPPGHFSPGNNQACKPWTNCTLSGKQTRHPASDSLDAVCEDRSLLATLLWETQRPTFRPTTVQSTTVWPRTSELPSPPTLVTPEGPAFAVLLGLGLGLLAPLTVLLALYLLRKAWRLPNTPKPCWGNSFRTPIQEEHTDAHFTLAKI

[5] = target: T5, murine CD137 expressed on transfected HEK293 cells (murine, UniProt P20334 24-256)
T5 construct: whole, on cells
T5 sequence (looked up): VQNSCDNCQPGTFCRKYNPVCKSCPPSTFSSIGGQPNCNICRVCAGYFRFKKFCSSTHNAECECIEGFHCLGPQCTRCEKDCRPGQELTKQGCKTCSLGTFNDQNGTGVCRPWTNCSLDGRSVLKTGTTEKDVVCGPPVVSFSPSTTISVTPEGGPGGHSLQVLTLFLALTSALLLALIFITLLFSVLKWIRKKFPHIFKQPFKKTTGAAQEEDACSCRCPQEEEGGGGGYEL

[6] = target: T6, human FAS expressed on transfected HEK293 cells (human, UniProt P25445 26-335)
T6 construct: whole, on cells
T6 sequence (looked up): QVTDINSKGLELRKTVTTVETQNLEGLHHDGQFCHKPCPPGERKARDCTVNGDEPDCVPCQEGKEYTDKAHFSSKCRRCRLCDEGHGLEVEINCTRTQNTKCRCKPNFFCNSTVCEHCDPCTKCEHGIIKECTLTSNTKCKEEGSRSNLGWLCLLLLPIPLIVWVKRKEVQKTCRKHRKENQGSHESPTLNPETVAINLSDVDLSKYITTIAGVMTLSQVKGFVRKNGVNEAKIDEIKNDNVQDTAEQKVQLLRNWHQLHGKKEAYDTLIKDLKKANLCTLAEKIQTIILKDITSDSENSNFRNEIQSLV

[7] = target: T7, murine FAS expressed on transfected HEK293 cells (murine, UniProt P25446 22-327)
T7 construct: whole, on cells
T7 sequence (looked up): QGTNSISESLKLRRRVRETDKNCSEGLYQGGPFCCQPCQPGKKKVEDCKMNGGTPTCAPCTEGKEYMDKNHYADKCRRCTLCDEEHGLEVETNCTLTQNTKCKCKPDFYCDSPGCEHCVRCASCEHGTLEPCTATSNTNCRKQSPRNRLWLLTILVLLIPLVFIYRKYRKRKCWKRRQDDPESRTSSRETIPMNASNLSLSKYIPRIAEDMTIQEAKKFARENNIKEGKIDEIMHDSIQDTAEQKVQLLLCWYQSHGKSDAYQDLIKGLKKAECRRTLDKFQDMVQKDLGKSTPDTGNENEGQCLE

[8] = target: T8, human TNFRSF1A expressed on transfected HEK293 cells (human, UniProt P19438 30-455)
T8 construct: whole, on cells
T8 sequence (looked up): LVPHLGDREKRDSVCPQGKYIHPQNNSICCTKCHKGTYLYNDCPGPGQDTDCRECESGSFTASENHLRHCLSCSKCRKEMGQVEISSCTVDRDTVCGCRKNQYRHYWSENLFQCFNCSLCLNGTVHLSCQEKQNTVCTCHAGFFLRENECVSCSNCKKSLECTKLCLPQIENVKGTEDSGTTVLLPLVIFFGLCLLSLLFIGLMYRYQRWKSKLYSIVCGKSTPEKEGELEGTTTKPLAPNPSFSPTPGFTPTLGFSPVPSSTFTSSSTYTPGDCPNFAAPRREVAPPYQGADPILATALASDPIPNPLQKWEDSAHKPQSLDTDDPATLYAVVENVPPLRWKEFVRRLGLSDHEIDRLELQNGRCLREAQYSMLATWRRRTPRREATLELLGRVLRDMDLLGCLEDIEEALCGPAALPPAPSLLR

[9] = target: T9, murine TNFRSF1A expressed on transfected HEK293 cells (murine, UniProt P25118 30-454)
T9 construct: whole, on cells
T9 sequence (looked up): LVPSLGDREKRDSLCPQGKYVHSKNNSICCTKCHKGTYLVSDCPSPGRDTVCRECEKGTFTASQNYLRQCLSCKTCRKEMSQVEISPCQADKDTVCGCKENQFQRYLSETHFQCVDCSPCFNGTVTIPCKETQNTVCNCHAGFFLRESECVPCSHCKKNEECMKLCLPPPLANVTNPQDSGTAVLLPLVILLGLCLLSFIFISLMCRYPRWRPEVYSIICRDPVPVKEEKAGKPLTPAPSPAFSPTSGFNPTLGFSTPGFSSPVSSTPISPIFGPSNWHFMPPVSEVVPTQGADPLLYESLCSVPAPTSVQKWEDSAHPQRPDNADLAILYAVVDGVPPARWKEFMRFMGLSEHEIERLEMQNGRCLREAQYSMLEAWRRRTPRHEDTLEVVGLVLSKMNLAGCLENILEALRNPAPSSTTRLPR

Measured: binding result

T1 sequence (P25942 21-277): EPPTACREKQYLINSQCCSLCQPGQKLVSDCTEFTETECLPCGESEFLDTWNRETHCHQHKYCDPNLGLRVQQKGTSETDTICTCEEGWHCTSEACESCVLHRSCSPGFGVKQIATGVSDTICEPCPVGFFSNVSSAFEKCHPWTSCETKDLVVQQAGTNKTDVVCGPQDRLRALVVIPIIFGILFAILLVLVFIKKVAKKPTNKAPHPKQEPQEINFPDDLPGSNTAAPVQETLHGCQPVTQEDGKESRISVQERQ

B1: anti-CD27 antibody mAb076 (IgG1 form) (antibody, V domains shown)
VH: EVQLVESGGGLVQPGGSLRLSCAASGFTFSDYGIHWVRQAPGKGLEWIGWINPNRGSTNYAQKFQGRVTISRDNSKNTLYLQLNSLRAEDTAVYYCARDYGYTWYFDVWGQGTLVTVSS
VL: DIQLTQSPSSLSASVGDRVTITCRASQDISSVLAWYQQKPGKAPKLLIYAASSLQSGVPSRFSGSGSGTDFTLTISSLQPEDFATYYCQQRDAWPLTFGQGTKVEIK
notes: Human antibody from phage display
no binding (tested: 100 nM): [1] | [2] | [3] | [4] | [5] | [6] | [7] | [8] | [9]

B2: anti-CD27 antibody mAb077 (IgG1 form) (antibody, V domains shown)
VH: B1 VH with D31G, N59K, Y100P
VL: B1 VL with V32D, S53T, L96P
notes: as for B1
no binding (tested: 100 nM): [1] | [2] | [3] | [4] | [5] | [6] | [7] | [8] | [9]
